Data from the supplement of paper PMC5998384.

Tests used:
[1] = system: HeLa Kyoto; assay: solubility in G1/S (NP-40 vs SDS abundance) (log2 ratio); higher = more soluble; settings: cell cycle stage: G1/S
[2] = system: HeLa Kyoto; assay: solubility change mitosis vs G1/S (difference of NP-40 vs SDS log2 ratios) (log2 ratio difference); higher = more soluble in mitosis
[3] = system: HeLa Kyoto; assay: melting temperature (median over replicates), in situ; higher = more thermally stable
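For melting temperature (median over replicates), in situ in this document: HeLa Kyoto cells synchronized by double thymidine or nocodazole block, proteins quantified by TMT10plex mass spectrometry, three independent biological replicates.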
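For solubility change mitosis vs G1/S (difference of NP-40 vs SDS log2 ratios) in this document: synchronized HeLa Kyoto cells (double thymidine block for G1/S, nocodazole release for mitosis), protein amounts in NP-40 versus SDS lysates quantified by mass spectrometry, three biological replicates.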
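For solubility in G1/S (NP-40 vs SDS abundance) in this document: HeLa Kyoto cells arrested at G1/S by double thymidine block, proteins quantified by TMT10plex mass spectrometry in mild NP-40 versus SDS extracts, three biological replicates.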

Sequence of DNAJC15 (chain, as listed by the source): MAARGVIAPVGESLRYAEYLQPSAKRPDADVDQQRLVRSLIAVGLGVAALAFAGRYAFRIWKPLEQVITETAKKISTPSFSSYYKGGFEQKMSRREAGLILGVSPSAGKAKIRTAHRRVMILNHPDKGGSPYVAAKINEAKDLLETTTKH

Substance | solubility in G1/S (log2) [1] | solubility change mitosis (log2) [2] | melting temperature ([3]; cell cycle stage: mitosis) | melting temperature ([3]; cell cycle stage: G1/S)
MALLAEHLLKPLPADKQIETGPFLEAVSHLPPFFDCLGSPVFTPIKADISGNITKIKAVYDTNPAKFRTLQNILEVEKEMYGAEWPKVGATLALMWLKRGLRFIQVFLQSICDGERDENHPNLIRVNATKAYEMALKKYHGWIVQKIFQAALYAAPYKSDFLKALSKGQNVTEEECLEKIRLFLVNYTATIDVIYEMYTQMNAELNYKV [GLTP] | -0.139 | -0.117 | 53.3 °C | –
MASSFLPAGAITGDSGGELSSGDDSGEVEFPHSPEIEETSCLAELFEKAAAHLQGLIQVASREQLLYLYARYKQVKVGNCNTPKPSFFDFEGKQKWEAWKALGDSSPSQAMQEYIAVVKKLDPGWNPQIPEKKGKEANTGFGGPVISSLYHEETIREEDKNIFDYCRENNIDHITKAIKSKNVDVNVKDEEGRALLHWACDRGHKELVTVLLQHRADINCQDNEGQTALHYASACEFLDIVELLLQSGADPTLRDQDGCLPEEVTGCKTVSLVLQRHTTGKA [ACBD6] | 0.393 | 0.0566 | 49.2 °C | 48 °C
MAQEFVNCKIQPGKVVVFIKPTCPYCRRAQEILSQLPIKQGLLEFVDITATNHTNEIQDYLQQLTGARTVPRVFIGKDCIGGCSDLVSLQQSGELLTRLKQIGALQ [GLRX] | 0.253 | 0.0467 | 53.4 °C | 54.7 °C
MLFKLLQRQTYTCLSHRYGLYVCFLGVVVTIVSAFQFGEVVLEWSRDQYHVLFDSYRDNIAGKSFQNRLCLPMPIDVVYTWVNGTDLELLKELQQVREQMEEEQKAMREILGKNTTEPTKKSEKQLECLLTHCIKVPMLVLDPALPANITLKDLPSLYPSFHSASDIFNVAKPKNPSTNVSVVVFDSTKDVEDAHSGLLKGNSRQTVWRGYLTTDKEVPGLVLMQDLAFLSGFPPTFKETNQLKTKLPENLSSKVKLLQLYSEASVALLKLNNPKDFQELNKQTKKNMTIDGKELTISPAYLLWDLSAISQSKQDEDISASRFEDNEELRYSLRSIERHAPWVRNIFIVTNGQIPSWLNLDNPRVTIVTHQDVFRNLSHLPTFSSPAIESHIHRIEGLSQKFIYLNDDVMFGKDVWPDDFYSHSKGQKVYLTWPVPNCAEGCPGSWIKDGYCDKACNNSACDWDGGDCSGNSGGSRYIAGGGGTGSIGVGQPWQFGGGINSVSYCNQGCANSWLADKFCDQACNVLSCGFDAGDCGQDHFHELYKVILLPNQTHYIIPKGECLPYFSFAEVAKRGVEGAYSDNPIIRHASIANKWKTIHLIMHSGMNATTIHFNLTFQNTNDEEFKMQITVEVDTREGPKLNSTAQKGYENLVSPITLLPEAEILFEDIPKEKRFPKFKRHDVNSTRRAQEEVKIPLVNISLLPKDAQLSLNTLDLQLEHGDITLKGYNLSKSALLRSFLMNSQHAKIKNQAIITDETNDSLVAPQEKQVHKSILPNSLGVSERLQRLTFPAVSVKVNGHDQGQNPPLDLETTARFRVETHTQKTIGGNVTKEKPPSLIVPLESQMTKEKKITGKEKENSRMEENAENHIGVTEVLLGRKLQHYTDSYLGFLPWEKKKYFQDLLDEEESLKTQLAYFTDSKNTGRQLKDTFADSLRYVNKILNSKFGFTSRKVPAHMPHMIDRIVMQELQDMFPEEFDKTSFHKVRHSEDMQFAFSYFYYLMSAVQPLNISQVFDEVDTDQSGVLSDREIRTLATRIHELPLSLQDLTGLEHMLINCSKMLPADITQLNNIPPTQESYYDPNLPPVTKSLVTNCKPVTDKIHKAYKDKNKYRFEIMGEEEIAFKMIRTNVSHVVGQLDDIRKNPRKFVCLNDNIDHNHKDAQTVKAVLRDFYESMFPIPSQFELPREYRNRFLHMHELQEWRAYRDKLKFWTHCVLATLIMFTIFSFFAEQLIALKRKIFPRRRIHKEASPNRIRV [GNPTAB] | 0.263 | -0.00222 | 54.1 °C | 53.9 °C
MDALEGESFALSFSSASDAEFDAVVGYLEDIIMDDEFQLLQRNFMDKYYLEFEDTEENKLIYTPIFNEYISLVEKYIEEQLLQRIPEFNMAAFTTTLQHHKDEVAGDIFDMLLTFTDFLAFKEMFLDYRAEKEGRGLDLSSGLVVTSLCKSSSLPASQNNLRH [ARL2BP] | -0.148 | 0.0405 | 53 °C | 50.9 °C
MSTASSSSSSSSSQTPHPPSQRMRRSAAGSPPAVAAAGSGNGAGGGGGVGCAPAAGAGRLLQPIRATVPYQLLRGSQHSPTRPPVAAAAASLGSLPGPGAARGPSPSSPTPPAAAAPAEQAPRAKGRPRRSPESHRRSSSPERRSPGSPVCRADKAKSQQVRTSSTIRRTSSLDTITGPYLTGQWPRDPHVHYPSCMKDKATQTPSCWAEEGAEKRSHQRSASWGSADQLKEQIAKLRQQLQRSKQSSRHSKEKDRQSPLHGNHITISHTQATGSRSVPMPLSNISVPKSSVSRVPCNVEGISPELEKVFIKENNGKEEVSKPLDIPDGRRAPLPAHYRSSSTRSIDTQTPSVQERSSSCSSHSPCVSPFCPPESQDGSPCSTEDLLYDRDKDSGSSSPLPKYASSPKPNNSYMFKREPPEGCERVKVFEEMASRQPISAPLFSCPDKNKVNFIPTGSAFCPVKLLGPLLPASDLMLKNSPNSGQSSALATLTVEQLSSRVSFTSLSDDTSTAGSMEASVQQPSQQQQLLQELQGEDHISAQNYVII [GLCCI1] | 0.4 | -0.0403 | 54.4 °C | 53.7 °C
MTSPEIASLSWGQMKVKGSNTTYKDCKVWPGGSRTWDWRETGTEHSPGVQPADVKEVVEKGVQTLVIGRGMSEALKVPSSTVEYLKKHGIDVRVLQTEQAVKEYNALVAQGVRVGGVFHSTC [AAMDC] | 0.355 | 0.0391 | 52.5 °C | 53.4 °C
DNAJC15 | 0.11 | -0.164 | 51.2 °C | 51 °C
TOPBP1 | -0.153 | -0.0346 | 49.1 °C | 46.7 °C
MQSPAVLVTSRRLQNAHTGLDLTVPQHQEVRGKMMSGHVEYQILVVTRLAAFKSAKHRPEDVVQFLVSKKYSEIEEFYQKLSSRYAAASLPPLPRKVLFVGESDIRERRAVFNEILRCVSKDAELAGSPELLEFLGTRSPGAAGLTSRDSSVLDGTDSQTGNDEEAFDFFEEQDQVAEEGPPVQSLKGEDAEESLEEEEALDPLGIMRSKKPKKHPKVAVKAKPSPRLTIFDEEVDPDEGLFGPGRKLSPQDPSEDVSSVDPLKLFDDPDLGGAIPLGDSLLLPAACESGGPTPSLSHRDASKELFRVEEDLDQILNLGAEPKPKPQLKPKPPVAAKPVIPRKPAVPPKAGPAEAVAGQQKPQEQIQAMDEMDILQYIQDHDTPAQAAPSLF [HS1BP3] | 0.292 | 0.119 | 50.5 °C | 49.7 °C
MAAPSGTVSDSESSNSSSDAEELERCREAAMPAWGLEQRPHVAGKPRAGAANSQLSTSQPSLRHKVNEHEQDGNELQTTPEFRAHVAKKLGALLDSFITISEAAKEPAKAKVQKVALEDDGFRLFFTSVPGGREKEESPQPRRKRQPSSSSEDSDEEWRRCREAAVSASDILQESAIHSPGTVEKEAKKKRKLKKKAKKVASVDSAVAATTPTSMATVQKQKSGELNGDQVSLGTKKKKKAKKASETSPFPPAKSATAIPAN [C12ORF43] | -0.08 | 0.379 | 56.9 °C | 56.1 °C
MEPPNLYPVKLYVYDLSKGLARRLSPIMLGKQLEGIWHTSIVVHKDEFFFGSGGISSCPPGGTLLGPPDSVVDVGSTEVTEEIFLEYLSSLGESLFRGEAYNLFEHNCNTFSNEVAQFLTGRKIPSYITDLPSEVLSTPFGQALRPLLDSIQIQPPGGSSVGRPNGQS [DESI1] | 0.341 | -0.0645 | 48.4 °C | 47.1 °C
MAQRLLLRRFLASVISRKPSQGQWPPLTSRALQTPQCSPGGLTVTPNPARTIYTTRISLTTFNIQDGPDFQDRVVNSETPVVVDFHAQWCGPCKILGPRLEKMVAKQHGKVVMAKVDIDDHTDLAIEYEVSAVPTVLAMKNGDVVDKFVGIKDEDQLEAFLKKLIG [TXN2] | 0.576 | 0.017 | 52.9 °C | 53.5 °C
CHD8 | -0.156 | -0.0952 | 50.1 °C | 46.5 °C
MRRSAAPSQLQGNSFKKPKFIPPGRSNPGLNEEITKLNPDIKLFEGVAINNTFLPSQNDLRICSLNLPSEESTREINNRDNCSGKYCFEAPTLATLDPPHTVHSAPKEVAVSKEQEEKSDSLVKYFSVVWCKPSKKKHKKWEGDAVLIVKGKSFILKNLEGKDIGRGIGYKFKELEKIEEGQTLMICGKEIEVMGVISPDDFSSGRCFQLGGGSTAISHSSQVARKCFSNPFKSVCKPSSKENRQNDFQNCKPRHDPYTPNSLVMPRPDKNHQWVFNKNCFPLVDVVIDPYLVYHLRPHQKEGIIFLYECVMGMRMNGRCGAILADEMGLGKTLQCISLIWTLQCQGPYGGKPVIKKTLIVTPGSLVNNWKKEFQKWLGSERIKIFTVDQDHKVEEFIKSIFYSVLIISYEMLLRSLDQIKNIKFDLLICDEGHRLKNSAIKTTTALISLSCEKRIILTGTPIQNDLQEFFALIDFVNPGILGSLSSYRKIYEEPIILSREPSASEEEKELGERRAAELTCLTGLFILRRTQEIINKYLPPKIENVVFCRPGALQIELYRKLLNSQVVRFCLQGLLENSPHLICIGALKKLCNHPCLLFNSIKEKECSSTCDKNEEKSLYKGLLSVFPADYNPLLFTEKESGKLQVLSKLLAVIHELRPTEKVVLVSNYTQTLNILQEVCKRHGYAYTRLDGQTPISQRQQIVDGFNSQHSSFFIFLLSSKAGGVGLNLIGGSHLILYDIDWNPATDIQAMSRVWRDGQKYPVHIYRLLTTGTIEEKIYQRQISKQGLCGAVVDLTKTSEHIQFSVEELKNLFTLHESSDCVTHDLLDCECTGEEVHTGDSLEKFIVSRDCQLGPHHQKSNSLKPLSMSQLKQWKHFSGDHLNLTDPFLERITENVSFIFQNITTQATGT [RAD54B] | -0.106 | -0.0255 | 48.1 °C | 46.5 °C
MAVCGLGSRLGLGSRLGLRGCFGAARLLYPRFQSRGPQGVEDGDRPQPSSKTPRIPKIYTKTGDKGFSSTFTGERRPKDDQVFEAVGTTDELSSAIGFALELVTEKGHTFAEELQKIQCTLQDVGSALATPCSSAREAHLKYTTFKAGPILELEQWIDKYTSQLPPLTAFILPSGGKISSALHFCRAVCRRAERRVVPLVQMGETDANVAKFLNRLSDYLFTLARYAAMKEGNQEKIYMKNDPSAESEGL [MMAB] | 0.574 | 0.126 | 55.8 °C | 51.8 °C
MASSASARTPAGKRVINQEELRRLMKEKQRLSTSRKRIESPFAKYNRLGQLSCALCNTPVKSELLWQTHVLGKQHREKVAELKGAKEASQGSSASSAPHSVKRKAPDADDQDVKRAKATLVPQVQPSTSAWTTNFDKIGKEFIRATPSKPSGLSLLPDYEDEEEEEEEEEGDGERKRGDASKPLSDAQGKEHSVSSSREVTSSVLPNDFFSTNPPKAPIIPHSGSIEKAEIHEKVVERRENTAEALPEGFFDDPEVDARVRKVDAPKDQMDKEWDEFQKAMRQVNTISEAIVAEEDEEGRLDRQIGEIDEQIECYRRVEKLRNRQDEIKNKLKEILTIKELQKKEEENADSDDEGELQDLLSQDWRVKGALL [ZNF830] | 0.423 | 0.0142 | 54.4 °C | 56.2 °C
